In patent US20160215040A1 (Regeneron, published 2016):
Positions count from the first letter of the chain named.

T1: hCNTFR.mmh (ciliary neurotrophic factor receptor.mmh) (human (printed as hCNTFR), UniProt P26992 23-342)
T1 construct: also called negative control protein; not shown: mmh (myc-myc-hexahistidine) tag
T1 sequence: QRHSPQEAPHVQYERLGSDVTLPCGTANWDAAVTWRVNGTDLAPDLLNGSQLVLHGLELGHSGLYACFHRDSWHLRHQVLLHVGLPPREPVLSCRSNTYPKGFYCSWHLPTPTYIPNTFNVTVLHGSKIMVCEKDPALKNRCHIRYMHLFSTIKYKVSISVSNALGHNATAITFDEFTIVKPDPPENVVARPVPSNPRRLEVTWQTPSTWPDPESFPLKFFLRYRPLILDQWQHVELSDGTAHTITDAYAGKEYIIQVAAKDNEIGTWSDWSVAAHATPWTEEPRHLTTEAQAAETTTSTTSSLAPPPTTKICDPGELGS

T2: Ebola virus GP, Cote d'Ivoire strain, on VLPs (Ebola virus, Cote d'Ivoire strain, UniProt Q66810 33-676)
T2 construct: also called Cote d'Ivoire FJ217162; Ivory Coast
T2 sequence: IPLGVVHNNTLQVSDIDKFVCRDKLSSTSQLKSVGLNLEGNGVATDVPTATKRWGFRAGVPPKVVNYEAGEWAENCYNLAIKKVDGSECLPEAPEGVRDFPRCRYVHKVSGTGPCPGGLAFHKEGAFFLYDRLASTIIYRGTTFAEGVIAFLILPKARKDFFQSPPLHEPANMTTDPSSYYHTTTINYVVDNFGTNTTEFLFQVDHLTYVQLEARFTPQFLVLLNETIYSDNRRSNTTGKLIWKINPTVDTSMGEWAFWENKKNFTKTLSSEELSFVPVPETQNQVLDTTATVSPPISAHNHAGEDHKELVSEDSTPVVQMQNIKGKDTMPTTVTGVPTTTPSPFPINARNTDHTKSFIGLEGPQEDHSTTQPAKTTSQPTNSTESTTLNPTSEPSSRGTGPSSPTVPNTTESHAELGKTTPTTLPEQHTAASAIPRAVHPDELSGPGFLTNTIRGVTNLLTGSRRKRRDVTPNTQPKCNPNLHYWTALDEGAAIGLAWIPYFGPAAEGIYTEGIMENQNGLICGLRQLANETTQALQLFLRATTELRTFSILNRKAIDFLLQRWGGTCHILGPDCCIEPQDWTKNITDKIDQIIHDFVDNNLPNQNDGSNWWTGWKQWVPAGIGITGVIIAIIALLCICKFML

T3: Ebola virus GP, Sudan strain, on VLPs (Ebola virus, Sudan strain, UniProt Q7T9D9 33-676)
T3 construct: also called Sudan NC_006432
T3 sequence: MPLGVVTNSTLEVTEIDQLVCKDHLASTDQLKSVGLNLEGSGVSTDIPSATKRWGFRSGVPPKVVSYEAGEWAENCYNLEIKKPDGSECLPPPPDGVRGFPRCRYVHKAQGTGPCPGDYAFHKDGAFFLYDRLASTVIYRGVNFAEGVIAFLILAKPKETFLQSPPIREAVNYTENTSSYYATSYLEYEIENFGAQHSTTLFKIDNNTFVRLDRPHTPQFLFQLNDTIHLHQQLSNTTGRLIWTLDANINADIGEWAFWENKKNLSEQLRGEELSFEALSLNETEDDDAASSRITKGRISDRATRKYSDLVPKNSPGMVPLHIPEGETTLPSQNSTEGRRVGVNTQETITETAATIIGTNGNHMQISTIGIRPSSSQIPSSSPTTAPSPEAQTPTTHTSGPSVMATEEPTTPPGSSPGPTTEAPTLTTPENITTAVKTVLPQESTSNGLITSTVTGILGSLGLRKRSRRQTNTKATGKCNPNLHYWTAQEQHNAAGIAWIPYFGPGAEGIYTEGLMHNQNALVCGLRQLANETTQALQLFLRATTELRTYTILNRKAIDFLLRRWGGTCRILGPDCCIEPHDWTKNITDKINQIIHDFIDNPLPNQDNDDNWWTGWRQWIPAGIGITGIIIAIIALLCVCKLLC

B1: H1H17162P (antibody, V domains shown)
VH: EVQLVESGGGLVQPGGSLRLSCAASEFTFSSYAMSWVRQAPGKGLEWVSAISGSSGSTYYADSVKGRFTISRDNSKKTLYLQMNSLRVEDTAVYYCAKGGYPHSFDIWGHGTMVTVSS
VL: DIQMTQSPSSLSASVGDRVTITCRASQSISSFLNWYQQKPGKAPKLLIYAASSLQSGVPSRFSGSGSGTDFTLTISSLQPEDFATYYCQQSYSSITFGQGTRLEIK
B2: H1H17219P (antibody, V domains shown)
VH: QVQLQQSGPGLVKPSQTLSLTCAISGDSVSSNIPAWNWIRQSPSRGLEWLGRTYYRSKWYNDYAVSVKSRITINPDTSKNHFSLQLNSVTPEDTAVYYCARGRVYDRSSRYFYAMDVWGQGTTVTVSS
VL: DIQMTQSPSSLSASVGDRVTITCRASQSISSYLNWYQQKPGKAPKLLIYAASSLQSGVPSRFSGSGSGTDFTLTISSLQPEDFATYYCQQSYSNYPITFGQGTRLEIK
B3: H1H17214P (antibody, V domains shown)
VH: EVQLVESGGGLVQPGGSLRLSCAASKFTFDTFAMSWVRQAPGKGLEWVSFISSSGGRTDYVDSVKGRFTISRDNSKNTLYLQMNSLRAEDTAVYYCAKERTIFGVLILGPDNYGMDVWGQGTTVTVSS
VL: DIQMTQSPSSLSAFVGDRVTITCRASQSISTYLNWYQQKPGKAPKLLIYAASSLQSGVSSRFSGSGSGTDFTLTISSLQPEDFATYYCQQSYSAPPITFGQGTRLEIK
B4: H1H17223P (antibody, V domains shown)
VH: EVQLVESGGGLVQPGGSLRLSCAASGFTFRTYDMHWVRQATGKGLEWVSAIGTAGDTYYPGSVKGRFTISRENAKNSLYLQMNSLRAGDTAVYYCARTIFGVVLTFDYWGQGTLVTVSS
VL: B3 VL with F14S, T31S, Y32S, Q55H, S59P, S91T, A94I, I97T, R104K, L105V
B5: H1M17357N (antibody, V domains shown)
VH: QVQLVQSGAEVKKPGASVKVSCKASGYTFTSYYMHWVRQAPGQGLEWMGIINPSGGSTSYAQKFQGRVTMTRDTSTSTVYMELSSLRSEDTAVYYCAREIGEAGEVFNYWGQGTLVTVSS
VL: B3 VL with F14S, T31R, Q38H, L46V, S53I, S59P, A94T
notes: also called HCAF09D11-13
B6: H1H17142P (antibody, V domains shown)
VH: EVQLVESGGGLVQPGGSLRLSCAASGFTFSSYAMTWVRQAPGKGLEWVSSISGSGTSTYYADSVKGRFTISRDNSKNTLYLQMNSLRAEDTALYYCSRDIYTWNFLSLIGGMDVWGQGTTVTVSS
VL: DIQMTQSPSSLSASVGDRVTITCRASQGIRIDLGWYQQKPGKAPNRLIYAASSLQGGVPSRFSGSGSGTEFTLTISSLQPEDFATYYCLQQNSYPWTFGQGTKVEIK
B7: H1H17359N (antibody, V domains shown)
VH: EVQLVESGGGLAQPGGSLRLSCAASGFTFSSHEMNWVRQAPGKGLEWVSYISRSGRIINYADSVKGRFTISRDNAKNSLYLQMNSLRAEDTAVYYCARERGSYYDILTGSQDYGMDVWGQGTTVTVSS
VL: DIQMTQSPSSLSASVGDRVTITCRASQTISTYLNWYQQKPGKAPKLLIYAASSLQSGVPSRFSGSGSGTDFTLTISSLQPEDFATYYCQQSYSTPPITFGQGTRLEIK
B8: H1H17228P (antibody, V domains shown)
VH: EVQLVESGGGLVQPGGSLRLSCAASGFTFSNYAMIWVRQAPGKGLEWVSGISGSGGSIYYADSVKGRFTISRDNSKNTLYLQMNSLRAEDTAVYYCAKEGIISMVRGLINYYHGMDVWGQGTTVTVSS
VL: not shown
B9: H1H17360N (antibody, V domains shown)
VH: EVQLVESGGGLVQPGGSLRLSCAASGFTFSSYEMNWVRQAPGKGLEWVSYISSSGSTKYYADSVKGRFTISRDNAKNSLYLQMNSLRAEDTAVYYCARPSSIPALLRNQYHYGMDVWGQGTTVTVSS
VL: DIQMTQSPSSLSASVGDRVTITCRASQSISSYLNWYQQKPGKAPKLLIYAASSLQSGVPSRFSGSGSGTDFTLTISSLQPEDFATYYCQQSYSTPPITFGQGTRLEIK
B10: H1H17358N2 (antibody, V domains shown)
VH: B9 VH with S31T, I51S, S56R, K58I, Y80F, P103E, A104T, M114V
VL: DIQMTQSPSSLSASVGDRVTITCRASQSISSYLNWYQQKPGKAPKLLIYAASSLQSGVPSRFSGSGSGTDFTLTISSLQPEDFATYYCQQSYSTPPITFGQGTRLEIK
B11: H1H17356N (antibody, V domains shown)
VH: B9 VH with S52G, S56R, T57A, K58T, P103A, Y112F
VL: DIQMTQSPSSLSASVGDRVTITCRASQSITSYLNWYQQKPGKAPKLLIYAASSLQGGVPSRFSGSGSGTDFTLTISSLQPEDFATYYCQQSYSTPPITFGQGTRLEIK

Experiments:
[1] = target: T1, hCNTFR.mmh (ciliary neurotrophic factor …); test: BLI, mAb captured, 25C
[2] = target: T4, Ebola virus GP with a C-terminal polyhistidine tag (Sino Biologicals, Catalog #40442-V08B1) (Ebola virus, UniProt P87666 33-650); test: SPR 37C, mAb captured
T4 construct: also called EbolaGP.his; Ebola virus GP.his

[3] = target: T2, Ebola virus GP, Cote d'Ivoire strain, …; test: MSD, VLPs coated
[4] = target: T4, Ebola virus GP with a C-terminal …; test: SPR 37C, mAb captured, pH chase
[5] = target: T4, Ebola virus GP with a C-terminal …; test: SPR 25C, mAb captured
[6] = target: T3, Ebola virus GP, Sudan strain, on VLPs; test: MSD, VLPs coated

Binder	binding result [1]	Kd [2] [nM]	koff [2] [s⁻¹]	kon [2] [M⁻¹ s⁻¹]	t½ [2] [min]	binding result [3]	t½ ratio pH 7.4/pH 5.0 [4]	t½ ratio pH 7.4/pH 6.0 [4]	Kd [5] [nM]	koff [5] [s⁻¹]	kon [5] [M⁻¹ s⁻¹]	t½ [5] [min]	binding result [6]
B1	no binding (tested: below 0.10 nm at 300 nM)	0.288	≤ 1e-05	34700	≥ 1160	no binding	0.3	0.3	≤ 0.46	≤ 1e-05	21800	≥ 1160	–
B2	no binding (tested: below 0.10 nm at 300 nM)	0.227	≤ 1e-05	44100	≥ 1160	no binding	1	1	0.934	2.9e-05	31100	398	no binding
B3	no binding (tested: below 0.10 nm at 300 nM)	4.2	0.000154	36700	74.9	no binding	1	1	≤ 0.266	≤ 1e-05	37600	≥ 1160	no binding
B4	no binding (tested: below 0.10 nm at 300 nM)	6.89	0.000242	35100	47.7	no binding	0.4	0.4	2.03	6.08e-05	30000	190	no binding
B5	no binding (tested: below 0.10 nm at 300 nM)	78.1	0.00184	23500	6.3	no binding	0.5	0.8	–	–	–	–	no binding
B6	no binding (tested: below 0.10 nm at 300 nM)	6.68	0.000174	26000	66.6	–	0.5	0.5	1.41	2.81e-05	20000	411	no binding
B7	no binding (tested: below 0.10 nm at 300 nM)	–	–	–	–	–	–	–	–	–	–	–	–
B8	no binding (tested: below 0.10 nm at 300 nM)	52.3	0.00383	73200	3	no binding	0.5	0.6	37.6	0.00169	44900	6.9	no binding
B9	no binding (tested: below 0.10 nm at 300 nM)	–	–	–	–	no binding	–	–	–	–	–	–	no binding
B10	no binding (tested: below 0.10 nm at 300 nM)	–	–	–	–	no binding	–	–	–	–	–	–	no binding
B11	no binding (tested: below 0.10 nm at 300 nM)	–	–	–	–	–	–	–	–	–	–	–	–
